Values joined by “and” are separate entries in the source; they are usually repeats but may differ in a detail not shown here. Equal entries are not always repeated.
T1: recombinant mouse TfR2 (mouse, UniProt Q9JKX3 103-798, limits assumed)
T1 construct: Negative control protein
T1 sequence (looked up): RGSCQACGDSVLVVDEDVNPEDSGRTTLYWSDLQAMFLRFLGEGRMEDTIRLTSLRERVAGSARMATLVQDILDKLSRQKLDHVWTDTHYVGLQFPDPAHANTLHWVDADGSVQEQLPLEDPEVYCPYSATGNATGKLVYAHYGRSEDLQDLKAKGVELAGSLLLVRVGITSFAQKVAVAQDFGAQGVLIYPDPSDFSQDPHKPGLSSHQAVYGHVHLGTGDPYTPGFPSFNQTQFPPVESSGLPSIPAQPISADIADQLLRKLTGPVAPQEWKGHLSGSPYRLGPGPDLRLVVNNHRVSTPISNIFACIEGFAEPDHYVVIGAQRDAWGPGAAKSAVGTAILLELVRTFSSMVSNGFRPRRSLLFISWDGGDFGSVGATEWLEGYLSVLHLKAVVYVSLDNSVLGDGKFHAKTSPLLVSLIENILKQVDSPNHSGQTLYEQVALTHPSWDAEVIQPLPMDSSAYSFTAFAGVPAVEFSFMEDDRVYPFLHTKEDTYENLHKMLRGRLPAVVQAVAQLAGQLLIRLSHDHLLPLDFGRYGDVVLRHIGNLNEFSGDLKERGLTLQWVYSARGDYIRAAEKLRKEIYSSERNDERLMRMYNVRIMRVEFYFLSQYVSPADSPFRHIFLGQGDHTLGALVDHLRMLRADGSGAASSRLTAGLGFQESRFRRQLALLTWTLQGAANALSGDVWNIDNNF


Experiments:
[1] = biological target: T2, recombinant mouse TfR1 (transferrin receptor 1) (mouse, UniProt Q62351 89-763); assay: ELISA on mouse TfR1
T2 construct: Bought recombinant His-tagged protein; also called mTfR1
T2 sequence (Q62351 89-763 limits assumed): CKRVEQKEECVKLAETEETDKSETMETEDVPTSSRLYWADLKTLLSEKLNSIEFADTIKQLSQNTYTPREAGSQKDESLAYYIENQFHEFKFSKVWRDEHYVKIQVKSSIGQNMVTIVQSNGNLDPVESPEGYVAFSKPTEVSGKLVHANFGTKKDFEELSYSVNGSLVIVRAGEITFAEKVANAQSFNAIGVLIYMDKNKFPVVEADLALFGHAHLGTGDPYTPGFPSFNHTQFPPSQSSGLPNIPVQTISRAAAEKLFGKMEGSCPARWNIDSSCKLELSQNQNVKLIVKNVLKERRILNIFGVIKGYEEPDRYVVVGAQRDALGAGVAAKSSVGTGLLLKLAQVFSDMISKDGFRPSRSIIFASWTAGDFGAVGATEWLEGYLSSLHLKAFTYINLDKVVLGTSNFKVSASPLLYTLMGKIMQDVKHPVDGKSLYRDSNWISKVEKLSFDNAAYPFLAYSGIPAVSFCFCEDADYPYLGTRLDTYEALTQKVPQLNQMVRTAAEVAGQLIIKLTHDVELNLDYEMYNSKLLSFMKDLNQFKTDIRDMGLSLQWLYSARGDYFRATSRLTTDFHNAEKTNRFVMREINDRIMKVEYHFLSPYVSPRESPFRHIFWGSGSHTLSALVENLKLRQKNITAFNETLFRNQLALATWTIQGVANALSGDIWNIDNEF

[2] = biological target: T2, recombinant mouse TfR1 (transferrin …); assay: Octet, mouse TfR1 on anti-His biosensors, analyte 10 nM, PBS pH 6.0
Method: (§1) Binding kinetics of selected VNAR-Fcs to mouse TfR1 at pH 7.2 and pH 6.0 was measured by […] (Octet). Mouse TfR1 (10 μg/ml) was immobilised on anti-His biosensors and the binding kinetics of VNAR-Fcs and 8D3 antibody (10 nM) was measured at pH 7.2 and pH 6.0 in phosphate buffered saline (PBS) (Table 8).

[3] = biological target: T2, recombinant mouse TfR1 (transferrin …); assay: Octet, mouse TfR1 on anti-His biosensors, analyte 10 nM, PBS pH 7.2
Method: as §1

[4] = biological target: T3, recombinant human TfR1 (transferrin receptor 1) (human, UniProt P02786 89-760); assay: SPR (Biacore), single-cycle kinetics, His-tagged TfR1 captured, VNAR-Fc injected
T3 construct: Bought recombinant His-tagged protein; also called hTfR1
T3 sequence (P02786 89-760 limits assumed): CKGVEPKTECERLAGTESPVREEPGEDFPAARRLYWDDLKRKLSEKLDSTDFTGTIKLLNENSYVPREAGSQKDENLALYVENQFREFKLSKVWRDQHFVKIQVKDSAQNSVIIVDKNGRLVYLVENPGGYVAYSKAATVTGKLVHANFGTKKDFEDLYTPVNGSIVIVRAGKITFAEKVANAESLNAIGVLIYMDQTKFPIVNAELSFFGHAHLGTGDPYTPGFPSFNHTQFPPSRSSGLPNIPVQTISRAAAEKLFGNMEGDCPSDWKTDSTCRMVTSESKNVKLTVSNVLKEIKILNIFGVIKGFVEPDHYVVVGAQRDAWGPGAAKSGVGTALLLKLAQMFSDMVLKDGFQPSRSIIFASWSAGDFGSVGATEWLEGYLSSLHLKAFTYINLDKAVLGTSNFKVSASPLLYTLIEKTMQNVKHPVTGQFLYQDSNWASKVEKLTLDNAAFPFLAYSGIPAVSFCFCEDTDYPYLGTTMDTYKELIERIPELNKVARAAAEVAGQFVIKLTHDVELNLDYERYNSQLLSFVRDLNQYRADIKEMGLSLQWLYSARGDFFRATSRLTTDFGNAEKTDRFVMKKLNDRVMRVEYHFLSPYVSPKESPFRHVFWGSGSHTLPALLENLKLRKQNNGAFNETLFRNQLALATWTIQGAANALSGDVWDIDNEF
Method: (§2) Binding kinetics of VNAR-Fcs was determined by surface plasmon resonance (Biacore T200, GE Healthcare). CM5 chips were coated with anti-His antibodies (His Capture Kit, GE Healthcare) as recommended by the manufacturer and human or mouse his-tagged TfR1 (SinoBiological) at 10 ug/mL in HBS-EP+ (GE Healthcare) was captured at flow rate 10 ul/min (contact time 120 s). […] A flow cell without TfR1 captured served as a reference. Sensorgrams were fitted and kinetic constants were determined using Biacore T200 Evaluation software. Chips were regenerated in 10 mM Glycine-HCl, pH 1.5 (contact time: 120 s at flow rate 30 ul/min).

[5] = biological target: T2, recombinant mouse TfR1 (transferrin …); assay: as above
Method: as §2

human serum albumin = biological target: T4, human serum albumin (human, UniProt P02768 25-609); assay: ELISA with Expi293 culture medium used directly, coated HSA, anti-Fc detection
T4 construct: Negative control protein; also called HSA
T4 sequence (P02768 25-609 limits assumed): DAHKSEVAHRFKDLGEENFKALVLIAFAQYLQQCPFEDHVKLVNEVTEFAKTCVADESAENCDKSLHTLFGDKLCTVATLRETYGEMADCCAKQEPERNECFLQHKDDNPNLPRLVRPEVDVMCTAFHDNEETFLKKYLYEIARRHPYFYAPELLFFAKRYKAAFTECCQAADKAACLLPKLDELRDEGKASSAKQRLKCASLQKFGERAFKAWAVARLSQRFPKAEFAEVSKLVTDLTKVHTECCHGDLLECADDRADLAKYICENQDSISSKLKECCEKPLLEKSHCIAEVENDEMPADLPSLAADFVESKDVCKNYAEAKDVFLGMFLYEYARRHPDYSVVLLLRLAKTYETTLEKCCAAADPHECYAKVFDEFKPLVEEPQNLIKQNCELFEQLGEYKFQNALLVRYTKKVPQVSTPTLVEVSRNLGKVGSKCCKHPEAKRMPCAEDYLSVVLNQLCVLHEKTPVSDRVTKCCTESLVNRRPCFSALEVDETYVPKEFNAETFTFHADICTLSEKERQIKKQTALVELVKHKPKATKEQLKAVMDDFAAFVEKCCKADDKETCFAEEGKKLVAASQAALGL
Method: (§3) FIG. 6. […] The VNAR-Fc fusion proteins were transiently expressed using Expi293 expression system. VNAR-Fc constructs contained signal peptide sequence in order to be secreted. Cell growth media was used directly in ELISA. HSA and mouse TfR2 were used as negative controls for unspecific binding. A clone in position 52 represents untransfected cells. Total Fc concentration was measured with capture and detection anti-Fc antibody pair using irrelevant VNAR-Fc at known concentration for standard curve.
(§4) The next day the plates were blocked with […] with 0.1% Tween20 (PBST) for 1 hour at room temperature. Transfected cells were spun down at 2000 rpm for 10 minutes and the collected supernatant was mixed with milk in PBST to a final 2.5% concentration and incubated for 30 minutes. 100 μl of blocked supernatant was transferred into coated plates and incubated for 1 hour. […] The plates were washed and developed with TMB detection solution before stopping the reaction with 1% HCl. Absorbance was measured at 450 nm. A VNAR-Fc at know concentration was used for standard curve to calculate VNAR-Fc expression level.

recombinant mouse TfR2 = biological target: T1, recombinant mouse TfR2; assay: ELISA with Expi293 culture medium used directly, coated mouse TfR2, anti-Fc detection
Method: as §3, §4

[6] = biological target: T3, recombinant human TfR1 (transferrin …); assay: ELISA, plate coated with 1 µg/ml recombinant human TfR1, purified VNAR-Fc titrated, 4-parameter fit
Method: (§5) It was previously reported that affinity might play a crucial role in TfR1 mediated brain penetration. […] Affinity estimation and unspecific binding was initially assessed using ELISA for human and mouse TfR1.
as §4

[7] = biological target: T2, recombinant mouse TfR1 (transferrin …); assay: ELISA, plate coated with 1 µg/ml recombinant mouse TfR1, purified VNAR-Fc titrated, 4-parameter fit
Method: as §5, §4

[8] = biological target: T3, recombinant human TfR1 (transferrin …); assay: Octet, human TfR1 immobilised; 8D3 as first antibody, which does not bind human TfR1 (grey column); white cell
Method: FIGS. 15A and 15B. Epitope binning by cross-competition binding to mouse and human TfR1. VNAR-Fc fusion proteins were tested for cross-blocking in a pairwise manner against mouse (A) and human TfR1 (B) immobilised on biosensors using the Octet platform.
A series of biochemical parameters was examined to further characterize the panel VNAR to TfR1 obtained from in vivo phage display selections. Epitope binning experiments were performed to assess whether the VNARs could compete against each other for binding to either the mouse or human TfR1. […] Because each VNAR binds via a unique CDR3 region with a different structural topography, steric interactions could be important efficient transcytosis.

[9] = biological target: T2, recombinant mouse TfR1 (transferrin …); assay: ELISA, plate coated with 1 µg/ml recombinant mouse TfR1, purified VNAR-Fc titrated, 4-parameter fit; Clone 2 stands twice in the legend
[10] = biological target: T2, recombinant mouse TfR1 (transferrin …); assay: SPR (Biacore), single-cycle kinetics, His-tagged TfR1 captured, VNAR-Fc injected; SPR single cycle kinetics, immobilised mouse TfR1, VNAR-Fc up to 250 nM
Method: as §2

Binder | EC50 [1] [nM] | Kd [2] [nM] | koff [2] [s⁻¹] | kon [2] [M⁻¹ s⁻¹] | Kd [3] [nM] | koff [3] [s⁻¹] | kon [3] [M⁻¹ s⁻¹] | Kd [4] [nM] | koff [4] [s⁻¹] | kon [4] [M⁻¹ s⁻¹] | Kd [5] [nM] | koff [5] [s⁻¹] | kon [5] [M⁻¹ s⁻¹] | binding result (human serum albumin) | binding result (recombinant mouse TfR2) | EC50 [6] [nM] | EC50 [7] [nM] | Octet signal as second antibody after 8D3 [8] | other results
Clone 1 VNAR-Fc fusion protein (Fc fusion, Bivalent VNAR-Fc; also called clone 1-Fc; not shown: glycine/serine linker (GxSx)n extending the hinge; human IgG1 Fc (hinge, CH2, CH3) of pFUSE-hIgG1e3-Fc2; G236 also deleted) ARVDQTPQTITKETGESLTINCVLRDNNCALSTTYWYRKKSGSTNEENISKGGRYVETVNSGSKSFSLKINDLTVEDSGTYRCNVRDVQACGNDWVWLDVYGGGTVVTVNA | 4.83 | 0.541 | 0.00036 | 666000 | 0.363 | 0.000292 | 804000 | 1.87 | 0.000123 | 66000 | 3.34 | 0.00025 | 74700 | no binding | no binding | 4.67 | 15.9 | 0.329 | 
Clone 2 VNAR-Fc fusion protein (Fc fusion, Bivalent VNAR-Fc; not shown: glycine/serine linker (GxSx)n extending the hinge; human IgG1 Fc (hinge, CH2, CH3) of pFUSE-hIgG1e3-Fc2; G236 also deleted) ARVDQTPQTITKETGESLTINCVLRDNNCALSTTYWYRKKSGSTNEENISKGGRYVETVNSGSKSFSLKINDLTVEDSGTYRCNVFGVDNGWWCDVYGGGTVVTVNA |  |  |  |  |  |  |  | 2.34 | 0.000445 | 190000 | 2.56 | 0.000501 | 195000 | no binding | no binding |  |  | 0.454 | EC50 [9]: 433 nM and 761 nM
Clone 10 VNAR-Fc fusion protein (Fc fusion, Bivalent VNAR-Fc; also called clone 10-Fc; Clone 10-hFc; not shown: glycine/serine linker (GxSx)n extending the hinge; human IgG1 Fc (hinge, CH2, CH3) of pFUSE-hIgG1e3-Fc2; G236 also deleted) ARVDQTPQTITKETGESLTINCVLRDSNCALSSTYWYRKKSGSTNEENISKGGRYVETVNSGSKSFSLRINDLTVEDSGTYRCNVVQYPSYNNYFWCDVYGDGTAVTVNA | 2.96 | 0.419 | 0.0003 | 715000 | 0.0703 | 4.43e-05 | 630000 | 0.523 | 0.00016 | 306000 | 0.408 | 0.000116 | 285000 | no binding | no binding | 2.45 | 11.9 | 0.546 | 
Clone 39 VNAR-Fc fusion protein (Fc fusion, Bivalent VNAR-Fc; not shown: glycine/serine linker (GxSx)n extending the hinge; human IgG1 Fc (hinge, CH2, CH3) of pFUSE-hIgG1e3-Fc2; G236 also deleted) ARVDQTPQTITKETGESLTINCVLRDSNCALSSTLWYRTKSGSRNEESISKGGRYVETVNSGSKSFSLKINDLTVEDSGTYRCNVQGMVYDGSSFWWCDVYGDSTAVTVNA |  |  |  |  |  |  |  | 7.22 | 0.000684 | 94700 |  |  |  | no binding | no binding | 257 | 1530 | 0.609 | Kd [10]: 18.3 nM; koff [10]: 0.00294 s⁻¹; kon [10]: 161000 M⁻¹ s⁻¹

More lines, main results first:

EC50 [1] [nM] | Kd [2] [nM] | koff [2] [s⁻¹] | kon [2] [M⁻¹ s⁻¹] | Kd [3] [nM] | koff [3] [s⁻¹] | kon [3] [M⁻¹ s⁻¹] | Kd [4] [nM] | koff [4] [s⁻¹] | kon [4] [M⁻¹ s⁻¹] | Kd [5] [nM] | koff [5] [s⁻¹] | kon [5] [M⁻¹ s⁻¹] | binding result (human serum albumin) | binding result (recombinant mouse TfR2) | EC50 [6] [nM] | EC50 [7] [nM] | Octet signal as second antibody after 8D3 [8] | Binder | other results
7.24 |  |  |  |  |  |  |  |  |  |  |  |  |  |  |  |  |  | IDUA-clone 1-hFc (Fc fusion, Order of the parts follows the text's 'VNAR-Fc-IDUA'; Made in CHO cells; also called clone 1 VNAR-Fc-IDUA fusion protein; not shown: human Fc fragment (hFc)) chain (part 1 of 2): ARVDQTPQTITKETGESLTINCVLRDNNCALSTTYWYRKKSGSTNEENISKGGRYVETVNSGSKSFSLKINDLTVEDSGTYRCNVRDVQACGNDWVWLDVYGGGTVVTVNA chain (part 2 of 2): APHLVHVDAARALWPLRRFWRSTGFCPPLPHSQADQYVLSWDQQLNLAYVGAVPHRGIKQVRTHWLLELVTTRGSTGRGLSYNFTHLDGYLDLLRENQLLPGFELMGSASGHFTDFEDKQQVFEWKDLVSSLARRYIGRYGLAHVSKWNFETWNEPDHHDFDNVSMTMQGFLNYYDACSEGLRAASPALRLGGPGDSFHTPPRSPLSWGLLRHCHDGTNFFTGEAGVRLDYISLHRKGARSSISILEQEKVVAQQIRQLFPKFADTPIYNDEADPLVGWSLPQPWRADVTYAAMVVKVIAQHQNLLLANTTSAFPYALLSNDNAFLSYHPHPFAQRTLTARFQVNNTRPPHVQLLRKPVLTAMGLLALLDEEQLWAEVSQAGTVLDSNHTVGVLASAHRPQGPADAWRAAVLIYASDDTRAHPNRSVAVTLRLRGVPPGPGLVYVTRYLDNGLCSPDGEWRRLGRPVFPTAEQFRRMRAAEDPVAAAPRPLPAGGRLTLRPALRLPSLLLVHVCARPEKPPGQVTRLRALPLTQGQLVLVWSDEHVGSKCLWTYEIQFSQDGKAYTPVSRKPSTFNLFVFSPDTGAVSGSYRVRALDYWARPGPFSDPVPYLEVPVPRGPPSPGNP | 
8.33 |  |  |  |  |  |  |  |  |  |  |  |  |  |  |  |  |  | IDUA-clone 10-hFc (Fc fusion, Order of the parts follows the text's 'VNAR-Fc-IDUA'; Made in CHO cells; also called clone 10 VNAR-Fc-IDUA fusion protein; not shown: human Fc fragment (hFc)) chain (part 1 of 2): ARVDQTPQTITKETGESLTINCVLRDSNCALSSTYWYRKKSGSTNEENISKGGRYVETVNSGSKSFSLRINDLTVEDSGTYRCNVVQYPSYNNYFWCDVYGDGTAVTVNA chain (part 2 of 2): APHLVHVDAARALWPLRRFWRSTGFCPPLPHSQADQYVLSWDQQLNLAYVGAVPHRGIKQVRTHWLLELVTTRGSTGRGLSYNFTHLDGYLDLLRENQLLPGFELMGSASGHFTDFEDKQQVFEWKDLVSSLARRYIGRYGLAHVSKWNFETWNEPDHHDFDNVSMTMQGFLNYYDACSEGLRAASPALRLGGPGDSFHTPPRSPLSWGLLRHCHDGTNFFTGEAGVRLDYISLHRKGARSSISILEQEKVVAQQIRQLFPKFADTPIYNDEADPLVGWSLPQPWRADVTYAAMVVKVIAQHQNLLLANTTSAFPYALLSNDNAFLSYHPHPFAQRTLTARFQVNNTRPPHVQLLRKPVLTAMGLLALLDEEQLWAEVSQAGTVLDSNHTVGVLASAHRPQGPADAWRAAVLIYASDDTRAHPNRSVAVTLRLRGVPPGPGLVYVTRYLDNGLCSPDGEWRRLGRPVFPTAEQFRRMRAAEDPVAAAPRPLPAGGRLTLRPALRLPSLLLVHVCARPEKPPGQVTRLRALPLTQGQLVLVWSDEHVGSKCLWTYEIQFSQDGKAYTPVSRKPSTFNLFVFSPDTGAVSGSYRVRALDYWARPGPFSDPVPYLEVPVPRGPPSPGNP | 
